The experiment deals with RSV strain 18537 pre-fusion F (Ds-Cav1) (human respiratory syncytial virus subgroup B strain 18537) (UniProt P13843). The experiment is described as follows: ELISA, F protein coated.
RSV strain 18537 pre-fusion F (Ds-Cav1) (human respiratory syncytial virus subgroup B strain 18537), sequence (P13843 26-513): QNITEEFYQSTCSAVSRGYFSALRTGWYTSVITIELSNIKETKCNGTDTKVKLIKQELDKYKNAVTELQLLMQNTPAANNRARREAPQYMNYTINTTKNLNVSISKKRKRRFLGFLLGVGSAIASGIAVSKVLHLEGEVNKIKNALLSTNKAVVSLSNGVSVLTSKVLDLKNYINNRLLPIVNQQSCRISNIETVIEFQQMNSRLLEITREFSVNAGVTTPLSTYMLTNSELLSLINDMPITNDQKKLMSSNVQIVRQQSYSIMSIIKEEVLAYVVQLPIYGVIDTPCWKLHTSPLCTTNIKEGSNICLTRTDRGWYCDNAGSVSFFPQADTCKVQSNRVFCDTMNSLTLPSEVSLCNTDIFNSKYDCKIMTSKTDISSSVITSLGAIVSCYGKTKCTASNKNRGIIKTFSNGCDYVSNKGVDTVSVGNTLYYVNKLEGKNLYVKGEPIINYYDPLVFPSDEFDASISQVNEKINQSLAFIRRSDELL

Regarding palivizumab (antibody), the half-maximal effective concentration (EC50) was determined as 0.046 µg/mL.

Turning to motavizumab (antibody), the EC50 was determined as 0.022 µg/mL.

For the origin of these results see US20190367586A1.
